B1: 29TYL#10 source scFv (scFv, V domains shown, not shown: large carriers)
VH: EVQLVESGGGLVQPGGSLRLSCKASGYTFTDGSMHWVRQAPGKGLEWVAYINPYFGDTYYADSVKGRFTISADTSKNTAYLQMNSLRAEDTAVYYCARGWIDYWGQGTLVTVSS
VL: DIQMTQSPSSLSASVGDRVTITCKSNQNLLLSNGRTFLYWYQQKPGKAPKLLIYGTSYLYSGVPSRFSGSGSGTDFTLTISSLQPEDFATYYCFQANHLPWTFGQGTKVEIKR
modifications: VL-linker-VH scFv; linker and E-tag not given
B2: 2835-28 source scFv (scFv, V domains shown, not shown: large carriers)
VH: B1 VH
VL: B1 VL
modifications: VL-linker-VH scFv; linker and E-tag not given

Experiments:
[1] = target: HER2 on the surface of N87 gastric cancer cells (human) (UniProt P04626); test: flow cytometry on N87 cells, 0.5 nM scFv detected with AL1-RFP
[2] = target: HER2 on the surface of N87 gastric cancer cells (human) (UniProt P04626); test: cell-based or functional assay

Row | Binder | MFI [1] | % cell viability (AL1) [2] [%] | % cell viability (AL2) [2] [%]
1 | B1 | 444 | 79.9 | 64.8
2 | B2 | 495 | 52.8 | 29.9
